B1: Microcin J25 (Escherichia coli), Q9X2V7 (parent)
chain: MIKHFHFNKLSSGKKNNVPSPAKGVIQIKKSASQLTKGGAGHVPEYFVGIGTPISFYG

Variants of: B1
Conditions: with fhua_ecoli fhuA

| Variant | effect of a mutation on the interaction |
| --- | --- |
| H42K | decreasing interaction strength |

Reference: IntAct's records for PubMed 24705590
